According to patent US20050042213A1 (INSIGHT BIOPHARMACEUTICALS, published 2005):

T1: active heparanase (H53), heterodimer of the 8 kDa and 45 kDa subunits (human, UniProt Q9Y251 36-109; Q9Y251 158-543)
T1 sequence 1: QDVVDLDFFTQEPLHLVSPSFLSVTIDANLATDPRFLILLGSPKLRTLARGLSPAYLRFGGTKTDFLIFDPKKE
T1 sequence 2: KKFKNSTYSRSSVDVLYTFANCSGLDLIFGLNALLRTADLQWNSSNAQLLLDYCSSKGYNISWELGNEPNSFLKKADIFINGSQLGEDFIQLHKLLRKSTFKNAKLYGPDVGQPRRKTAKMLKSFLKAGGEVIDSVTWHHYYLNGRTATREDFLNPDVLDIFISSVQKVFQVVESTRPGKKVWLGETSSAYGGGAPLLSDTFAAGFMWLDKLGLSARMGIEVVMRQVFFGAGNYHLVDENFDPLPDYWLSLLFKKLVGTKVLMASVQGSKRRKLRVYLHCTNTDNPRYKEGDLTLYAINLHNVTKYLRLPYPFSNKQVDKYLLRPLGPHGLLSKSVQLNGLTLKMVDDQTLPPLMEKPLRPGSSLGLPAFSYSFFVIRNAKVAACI

T2: pro-heparanase (H60), purified recombinant human 60 kDa latent heparanase (human, UniProt Q9Y251 36-543)
T2 sequence: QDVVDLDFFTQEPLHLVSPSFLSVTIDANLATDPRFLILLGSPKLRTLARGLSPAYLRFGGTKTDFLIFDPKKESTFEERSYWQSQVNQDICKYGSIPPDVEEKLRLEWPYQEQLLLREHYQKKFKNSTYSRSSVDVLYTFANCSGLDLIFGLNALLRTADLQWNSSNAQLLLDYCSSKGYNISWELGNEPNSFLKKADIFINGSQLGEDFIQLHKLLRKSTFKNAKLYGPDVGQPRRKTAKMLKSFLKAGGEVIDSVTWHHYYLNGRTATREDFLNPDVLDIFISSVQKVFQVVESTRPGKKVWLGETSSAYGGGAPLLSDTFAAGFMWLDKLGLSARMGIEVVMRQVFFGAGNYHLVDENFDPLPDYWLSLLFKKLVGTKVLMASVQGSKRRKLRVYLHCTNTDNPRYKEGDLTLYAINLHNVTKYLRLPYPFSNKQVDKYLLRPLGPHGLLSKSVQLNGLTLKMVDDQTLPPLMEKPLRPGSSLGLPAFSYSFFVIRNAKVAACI


Tests used:
Experiment in all cases: cell-based or functional assay
[1] = target: T1, active heparanase (H53), heterodimer of …
[2] = target: T2, pro-heparanase (H60), purified …
[3] = target: T1, active heparanase (H53), heterodimer of …; remark: listed apart in the source

Binder | IC50 H53 [1] [µM] | IC50 H60 (µM), H60 activation in the cell-based assay [2] [µM] | IC50 Heparanase [3] [µM]
CPAYLRFGGTKTDFLIFDPLLE [Pep-7] | 7 | – | –
PRFLILLGSPKLR [P8-4] | 2.3 | – | –
LRTLARGLSPAYL [P8-5] | 18 | – | –
FLILLGSPKLRTL [P8-8] | 8 | – | –
PRFLILL [P8-11] | 1.4 | 65 | –
DPRFLILL [P8-16] | 6 | – | –
RFLILL [P8-18] | 5 | – | –
CTWHHYYLNGRTATR [Pep-25] | – | – | 21
